# Experimental data as given in PMC12489045, “Non-coding RNA mediates the defense-associated reverse transcriptase (DRT) anti-phage oligomerization transition” (The EMBO Journal, 2025).
# Key:
# [1] = target: DRT9 reverse transcriptase (DRT9-RT protein), wild type, in complex with its ncRNA (Escherichia coli); experiment: cryo-EM structure; DRT9 RT-ncRNA complex without dNTPs, 2 mg/ml; 3.49 Å
# [2] = target: DRT9 reverse transcriptase (DRT9-RT protein), wild type, in complex with its ncRNA (Escherichia coli); experiment: cryo-EM structure; DRT9 RT-ncRNA complex (2 mg/ml) with 1 mM of each dNTP, 25 mM Tris-HCl pH 7.5, 150 mM NaCl, 5 mM MgCl2, room temperature 1 h; 3.46 Å
substance,measurement,setting,value
"DRT9 reverse transcriptase (DRT9-RT protein), wild type, in complex with its ncRNA (enzyme)",fraction of particles that are hexamers (without dNTPs),[1],13%
same,stoichiometry N,[1],4
same,stoichiometry N,[2],6
